Laboratory results taken from US20150203577A1 (Chugai, published 2015).
Numbering of substitutions follows the chain as printed. Names may count otherwise. Blank lines part the entries; values can stand above or below the binder they belong to.

Columns and labels:
mouse FcγRIII [1] = target: T1, mouse FcγRIII (mouse, UniProt P08508 31-215); test: SPR Biacore T200, KD ratio
T1 construct: also called mFcγRIII; mFcgRIII
T1 chain: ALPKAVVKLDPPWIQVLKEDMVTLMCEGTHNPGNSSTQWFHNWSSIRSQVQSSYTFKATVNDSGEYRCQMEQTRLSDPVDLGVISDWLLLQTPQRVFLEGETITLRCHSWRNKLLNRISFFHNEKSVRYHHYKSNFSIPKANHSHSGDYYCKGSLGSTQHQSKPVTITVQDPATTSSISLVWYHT

mouse FcγRII [2] = target: T2, mouse FcγRII (mouse, UniProt P08101 30-210); test: SPR Biacore T200, KD ratio
T2 construct: also called mFcγRII; mFcgRII
T2 sequence: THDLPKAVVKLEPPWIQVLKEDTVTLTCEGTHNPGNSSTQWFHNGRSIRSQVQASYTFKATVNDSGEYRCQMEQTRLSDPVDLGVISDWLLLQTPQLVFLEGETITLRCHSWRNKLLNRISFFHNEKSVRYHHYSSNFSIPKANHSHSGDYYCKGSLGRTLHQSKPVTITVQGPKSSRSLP

mouse FcγRII [3] = target: T2, mouse FcγRII; test: SPR Biacore T200, KD ratio; remark: listed apart in the source
mouse FcγRIII [4] = target: T3, mouse FcγRIII (mouse, UniProt P08508 31-215); test: SPR (Biacore), antibody captured on Protein L, mFcγR as analyte
T3 construct: also called mFcγRIII; mFcgRIII
T3 chain: T1 chain
Description: (§1) The antibody of interest was captured onto any of these sensor chips and allowed to interact with mFcγR diluted with a running buffer. The amount bound to the antibody was measured and compared among antibodies. Since the amount of mFcγR bound depends on the amount of the captured antibody, a correction value determined by dividing the amount of mFcγR bound by the amount of each captured antibody was used in the comparison. The antibody captured on the sensor chip was washed off through the reaction of 10 mM glycine-HCl (pH 1.5) to regenerate the sensor chip, which was repetitively used.
(§2) In order to calculate the KD value of each altered antibody for FcγR, kinetic analysis was conducted according to the following method: first, the antibody of interest was captured onto any of these chips and allowed to interact with mFcγR diluted with a running buffer. For the obtained sensorgram, the assay results were globally fit into the 1:1 Langmuir binding model using Biacore Evaluation Software to calculate an association rate constant ka (L/mol/s) and a dissociation rate constant kd (1/s). From these values, the dissociation constant KD (mol/L) was calculated.

[5] = target: T4, mouse FcγRIII extracellular domain, C-terminally His-tagged (mouse, UniProt P08508 31-215); test: SPR Biacore T200
T4 construct: the whole entry is named; also called mFcγRIII; mFcgRIII
T4 chain: T1 chain

[6] = target: T5, mouse FcγRII extracellular domain, C-terminally His-tagged (mouse, UniProt P08101 30-210); test: SPR Biacore T200, KD ratio
T5 construct: the whole entry is named; also called mFcγRII; mFcgRII
T5 sequence: T2 sequence

[7] = target: T6, mouse FcγRII extracellular domain, C-terminal His tag (mouse, UniProt P08101 30-210); test: SPR (Biacore T200); KD of H237-mIgG1/MRAL-k0 / KD of variant
T6 construct: Whole entry named; also called mFcγRII; mFcgRII
T6 sequence: T2 sequence

[8] = target: T7, mouse FcγRIII extracellular domain, C-terminal His tag (mouse, UniProt P08508 31-215); test: SPR (Biacore T200)
T7 construct: Whole entry named; also called mFcγRIII; mFcgRIII
T7 chain: T1 chain
Source text: (§3) The antibody H chain variable region used was the variable region H237 (SEQ ID NO: 1) of the H chain VH3-IgG1 of the anti-IL-6 receptor antibody Fv4-IgG1 described in WO2009/125825. The antibody L chain commonly used was the L chain MRAL-k0 (SEQ ID NO: 2) of the anti-IL-6 receptor antibody tocilizumab. […] These variants were expressed and purified by the method of Reference Example 1 and evaluated for their binding to mFcγRII and mFcγRIII by the method of Reference Example 2 using Biacore T200.
(§4) Each altered antibody was analyzed for its interaction with each Fcγ receptor prepared above using Biacore T100 (GE Healthcare Japan Corp.), Biacore T200 (GE Healthcare Japan Corp.), Biacore A100, or Biacore 4000. The running buffer used was HBS-EP+ (GE Healthcare Japan Corp.). The assay temperature was set to 25° C. The sensor chips used were chips prepared by immobilizing Protein L (ACTIGEN or BioVision) onto Series S Sensor Chip CM5 (GE Healthcare Japan Corp.) or Series S Sensor Chip CM4 (GE Healthcare Japan Corp.) by the amine coupling method.

[9] = target: T4, mouse FcγRIII extracellular domain, …; test: SPR Biacore T200, antibody captured on Protein L
Description: As for alterations, “X000Z” represents the substitution of amino acid X at EU numbering position 000 by amino acid Z. In this context, X and Z represent the one-letter codes of the amino acid residues.
as §4, §2

mouse FcγRII [10] = target: T8, mouse FcγRII (mouse, UniProt P08101 30-210); test: SPR (Biacore), antibody captured on Protein L, mFcγR as analyte
T8 construct: also called mFcγRII; mFcgRII
T8 sequence: T2 sequence
Description: as §1, §2

[11] = target: T6, mouse FcγRII extracellular domain, …; test: SPR (Biacore T200)
Source text: as §3, §4

[12] = target: T7, mouse FcγRIII extracellular domain, …; test: SPR (Biacore T200); KD of H237-mIgG1/MRAL-k0 / KD of variant
mouse FcγRIII [13] = target: T1, mouse FcγRIII; test: SPR Biacore T200, KD ratio
Description: (§5) The antibody L chain commonly used was the L chain MRAL-k0 (SEQ ID NO: 2) of the anti-IL-6 receptor antibody tocilizumab. The antibody H chain constant region used was each of the aforementioned 8 Fc variants prepared by altering human IgG1 hIgG1 (SEQ ID NO: 3) as a template.
as §4, §2

mouse FcγRII [14] = target: T2, mouse FcγRII; test: SPR Biacore T200, KD ratio; remark: listed apart in the source
Description: as §5, §4, §2

B1: H237-MB338/MRAL-k0 (antibody, mouse IgG1, kappa)
heavy: QVQLQESGPGLVKPSETLSLTCAVSGHSISHDHAWSWVRQPPGEGLEWIGFISYSGITNYNPSLQGRVTISRDNSKNTLYLQMNSLRAEDTAVYYCARSLARTTAMDYWGEGTLVTVSSAKTTPPSVYPLAPGSAAQTNSMVTLGCLVKGYFPEPVTVTWNSGSLSSGVHTFPAVLQSDLYTLSSSVTVPSSTWPSETVTCNVAHPASSTKVDKKIVPRDCGCKPCICEDPEVEDVFIFPPKPKDVLTITLTPKVTCVVVDISKDDPEVQFSWFVDDVEVHTAQTQPREEQFNSTFRSVSELPIMHQDWLNGKEFKCRVNSAAFPAPIEKTISKTKGRPKAPQVYTIPPPKEQMAKDKVSLTCMITDFFPEDITVEWQWNGQPAENYKNTQPIMDTDGSYFVYSKLNVQKSNWEAGNTFTCSVLHEGLHNHHTEKSLSHSPGK
light: not shown
notes: copies: 2 + 2
Relative mFcγRIII-binding activity (MB110 = 1) (mouse FcγRIII [1]): 0.64 fold | relative mFcγRIII-binding activity (mIgG1 = 1) (mouse FcγRIII [1]): 2.6 fold | Relative mFcγRII-binding activity (MB110 = 1) (mouse FcγRII [2]): 3.44 fold | relative mFcγRII-binding activity (mIgG1 = 1) (mouse FcγRII [2]): 42.2 fold | mFcγRII-binding activity relative to H237-MB302/MRAL-k0 (before the introduction of V231D) (mouse FcγRII [3]): ~0.8 fold

B2: H237-mIgG1/MRAL-k0 (antibody)
heavy: B1 heavy with E229T, D230V, E234S, D235S
light: not shown
notes: Anti-IL-6 receptor antibody with unaltered mouse IgG1 H chain constant region; copies: 2 + 2
Kd (mouse FcγRIII [4]): 0.282 µM

B4: H237-MB610/MRAL-k0 (antibody, mouse IgG1, kappa)
heavy: B1 heavy with E229T, D230V, V233E, E234S, D235E, F237D
light: not shown
notes: copies: 2 + 2
relative mFcγRII-binding activity (mIgG1 = 1) [7]: 0.23 fold | binding result [8]: no binding

B7: H237-MB606/MRAL-k0 (antibody, mouse IgG1, kappa)
heavy: B1 heavy with D230V, E234D, D235S, S263M
light: not shown
notes: copies: 2 + 2
relative mFcγRII-binding activity (mIgG1 = 1) [7]: 0.05 fold | binding result [8]: no binding

B8: H237-MB477/MRAL-k0 (antibody, mouse IgG1, kappa)
heavy: B1 heavy with D230P, P231N, S263A
light: not shown
notes: mouse IgG1 CH variant; copies: 2 + 2
Kd (mouse FcγRII [10]): 0.00107 µM | relative mFcγRII-binding activity (mIgG1 = 1) (mouse FcγRII [10]): 196 fold | Kd (mouse FcγRIII [4]): 0.094 µM | relative mFcγRIII-binding activity (mIgG1 = 1) (mouse FcγRIII [4]): 3 fold

B9: H237-MB492/MRAL-k0 (antibody, mouse IgG1, kappa)
heavy: B1 heavy with D230P, P231N, N320D
light: not shown
notes: as for B8
Kd (mouse FcγRII [10]): 0.000338 µM | relative mFcγRII-binding activity (mIgG1 = 1) (mouse FcγRII [10]): 622 fold | Kd (mouse FcγRIII [4]): 0.0258 µM | relative mFcγRIII-binding activity (mIgG1 = 1) (mouse FcγRIII [4]): 10.9 fold

B11: H237-MB390/MRAL-k0 (antibody, mouse IgG1, kappa)
heavy: B1 heavy with D230P, P231N
light: not shown
notes: mIgG1 with T230E/V231P/P232N/S238E/S239D; also called template T8; copies: 2 + 2
relative mFcγRII-binding activity (H237-mIgG1/MRAL-k0 = 1) (mouse FcγRII [3]): > 500 fold

B14: FS134 (antibody, human IgG1, kappa)
heavy: QVQLQESGPGLVKPSETLSLTCAVSGHSISHDHAWSWVRQPPGEGLEWIGFISYSGITNYNPSLQGRVTISRDNSKNTLYLQMNSLRAEDTAVYYCARSLARTTAMDYWGEGTLVTVSSASTKGPSVFPLAPSSKSTSGGTAALGCLVKDYFPEPVTVSWNSGALTSGVHTFPAVLQSSGLYSLSSVVTVPSSSLGTQTYICNVNHKPSNTKVDKKVEPKSCDKTHTCPPCPAPELLGGPDVFLFPPKPKDTLMISRTPEVTCVVVDVSDEDPEVKFNWYVDGVEVHNAKTKPREEQYNSTYRVVSVLTVLHQDWLNGKEYKCKVSNKAYPAPIEKTISKAKGQPREPQVYTLPPSRDELTKNQVSLTCLVKGFYPSDIAVEWESNGQPENNYKTTPPVLDSDGSFFLYSKLTVDKSRWQQGNVFSCSVMHEALHNHYTQKSLSLSPGK
light: not shown
notes: human IgG1 constant region variant; copies: 2 + 2
relative mFcγRIII-binding activity (mIgG1 = 1) (mouse FcγRIII [13]): 20.8 fold | relative mFcγRII-binding activity (mIgG1 = 1) (mouse FcγRII [14]): 58.2 fold

Now from value to binder:

binding result [5]: no binding | relative mFcγRII-binding activity (mIgG1 = 1) [6]: 0.3 fold
B3: H237-MB721/MRAL-k0 (antibody, mouse IgG1, kappa)
heavy: B1 heavy with D230P, P231N, D235H
light: not shown
notes: copies: 2 + 2

binding result [5]: no binding | relative mFcγRII-binding activity (mIgG1 = 1) [6]: 0.31 fold
B5: H237-MB792/MRAL-k0 (antibody, mouse IgG1, kappa)
heavy: B1 heavy with E229Q, D230P, P231N, D235V
light: not shown
notes: copies: 2 + 2

Kd [9]: 0.282 µM
B6: H237-mIgG1/MRAL-k0 (antibody)
heavy: B1 heavy with E229T, D230V, E234S, D235S
light: not shown
notes: Anti-IL-6 receptor antibody with the unaltered mouse IgG1 H chain constant region; copies: 2 + 2

binding result [8]: no binding | binding result [11]: no binding
B10: H237-MB590/MRAL-k0 (antibody, mouse IgG1, kappa)
heavy: B1 heavy with E229T, D230V, E234D, D235S, S263M
light: not shown
notes: copies: 2 + 2

relative mFcγRIII-binding activity (mIgG1 = 1) [12]: 0.01 fold | binding result [11]: no binding
B12: H237-MB675/MRAL-k0 (antibody)
heavy: B1 heavy with E229I, D230P, P231A, D235K
light: not shown
notes: copies: 2 + 2

relative mFcγRIII-binding activity (mIgG1 = 1) [12]: 0.03 fold | binding result [11]: no binding
B13: H237-MB677/MRAL-k0 (antibody)
heavy: B1 heavy with E229Q, D230P, P231N, D235K
light: not shown
notes: copies: 2 + 2

relative mFcγRIII-binding activity (mIgG1 = 1) (mouse FcγRIII [13]): 86.5 fold | relative mFcγRII-binding activity (mIgG1 = 1) (mouse FcγRII [14]): 162 fold
B15: FS133 (antibody, human IgG1, kappa)
heavy: B14 heavy with Y330W
light: not shown
notes: as for B14

relative mFcγRIII-binding activity (mIgG1 = 1) (mouse FcγRIII [13]): 50.1 fold | relative mFcγRII-binding activity (mIgG1 = 1) (mouse FcγRII [14]): 186 fold
B16: F616 (antibody, human IgG1, kappa)
heavy: B14 heavy with D270H, K328D
light: not shown
notes: as for B14

relative mFcγRIII-binding activity (mIgG1 = 1) (mouse FcγRIII [13]): 33.2 fold | relative mFcγRII-binding activity (mIgG1 = 1) (mouse FcγRII [14]): 144 fold
B17: FS131 (antibody, human IgG1, kappa)
heavy: B14 heavy with L236W, D270H
light: not shown
notes: as for B14

relative mFcγRIII-binding activity (mIgG1 = 1) (mouse FcγRIII [13]): 34.4 fold | relative mFcγRII-binding activity (mIgG1 = 1) (mouse FcγRII [14]): 138 fold
B18: FS135 (antibody, human IgG1, kappa)
heavy: B14 heavy with S269A, D270H
light: not shown
notes: as for B14

relative mFcγRIII-binding activity (mIgG1 = 1) (mouse FcγRIII [13]): 41.8 fold | relative mFcγRII-binding activity (mIgG1 = 1) (mouse FcγRII [14]): 96.7 fold
B19: FS132 (antibody, human IgG1, kappa)
heavy: B14 heavy with D270H, A329D
light: not shown
notes: as for B14
